Drawing on patent CN101407544A, this text covers 最低检测限 (lowest detection limit of the sandwich ELISA) and 效价 (titer in immunohistochemistry) (titer (1:x dilution)) for 1 molecule.

For assay [1], the target named is T1, 重组人GP73蛋白 His-GP73 (recombinant human Golgi protein 73 fragment with His tag, expressed in E. coli from pET-28-a(+)) (human) (UniProt Q8NBJ4).
T1 sequence (looked up): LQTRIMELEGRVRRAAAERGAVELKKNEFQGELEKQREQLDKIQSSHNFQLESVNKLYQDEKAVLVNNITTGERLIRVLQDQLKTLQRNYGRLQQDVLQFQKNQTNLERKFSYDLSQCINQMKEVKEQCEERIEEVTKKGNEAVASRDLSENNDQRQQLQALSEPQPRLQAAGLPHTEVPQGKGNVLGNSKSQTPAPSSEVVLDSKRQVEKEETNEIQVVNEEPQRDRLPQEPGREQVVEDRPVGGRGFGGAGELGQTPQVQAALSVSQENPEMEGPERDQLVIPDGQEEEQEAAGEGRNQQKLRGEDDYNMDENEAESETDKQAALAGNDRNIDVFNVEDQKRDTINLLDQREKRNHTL
The experiment in a line: double antibody sandwich ELISA: 6A2 (1 μg/ml) capture, His-GP73 standard, rabbit anti-GP73 serum (1:1000) detection.

In assay [2] the target is T2, GP73 in human prostatic hyperplasia tissue sections (前列腺增生组织石蜡切片中的GP73) (human) (UniProt Q8NBJ4).
T2 sequence (looked up): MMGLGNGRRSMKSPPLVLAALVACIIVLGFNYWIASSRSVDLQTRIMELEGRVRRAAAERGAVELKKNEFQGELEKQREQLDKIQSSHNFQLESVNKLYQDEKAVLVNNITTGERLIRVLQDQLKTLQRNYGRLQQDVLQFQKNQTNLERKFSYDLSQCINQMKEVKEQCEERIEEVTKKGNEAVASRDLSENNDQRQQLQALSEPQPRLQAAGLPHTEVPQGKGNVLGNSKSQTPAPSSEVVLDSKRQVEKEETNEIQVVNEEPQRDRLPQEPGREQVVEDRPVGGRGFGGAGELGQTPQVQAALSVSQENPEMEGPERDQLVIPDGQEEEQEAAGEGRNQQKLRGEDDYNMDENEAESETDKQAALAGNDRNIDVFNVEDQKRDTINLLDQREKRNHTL
Kind of assay: immunohistochemistry on paraffin sections.

B1: 抗GP73单克隆抗体6A2 (anti-GP73 mAb) (antibody, part only; not given: light chain variable region, V domains shown, part only)
VH: DFNIKDTYMHWMKQRPEQGLEWIGRIDPANGNTKYDPKFQGKATITTDTSSNTAYLQLSSLTSEDTAVYYCAREDYGNLWYFDV
Take B1: in assay [1], the 最低检测限 (lowest detection limit of the sandwich ELISA) is 0.25 ng/mL. In addition, in assay [2], the 效价 (titer in immunohistochemistry) (titer (1:x dilution)) worked out at 1000.
